B1: Speckle-type POZ protein (Homo sapiens), O43791 (parent)
chain: MSRVPSPPPPAEMSSGPVAESWCYTQIKVVKFSYMWTINNFSFCREEMGEVIKSSTFSSGANDKLKWCLRVNPKGLDEESKDYLSLYLLLVSCPKSEVRAKFKFSILNAKGEETKAMESQRAYRFVQGKDWGFKKFIRRDFLLDEANGLLPDDKLTLFCEVSVVQDSVNISGQNTMNMVKVPECRLADELGGLWENSRFTDCCLCVAGQEFQAHKAILAARSPVFSAMFEHEMEESKKNRVEINDVEPEVFKEMMCFIYTGKAPNLDKMADDLLAAADKYALERLKVMCEDALCSNLSVENAAEILILADLHSADQLKTQAVDFINYHASDVLETSGWKSMVVSHPHLVAEAYRSLASAQCPFLGPPRKRLKQS

Variants of: B1
Conditions: with PIK3C2B

effect of a mutation on the interaction	Variant
with no effect	F133L

Variants of: B1
Conditions: with pk3ca_human PIK3CA

effect of a mutation on the interaction	Variant
with no effect	F133L

Variants of: B1
Conditions: with pk3cg_human PIK3CG

effect of a mutation on the interaction	Variant
with no effect	F133L

Variants of: B1
Conditions: with p85b_human PIK3R2, O00459

effect of a mutation on the interaction	Variant
with no effect	F133L

Variants of: B1
Conditions: with dpod1_human POLD1, P28340

effect of a mutation on the interaction	Variant
with no effect	F133L

Variants of: B1
Conditions: with dpoe1_human POLE

effect of a mutation on the interaction	Variant
with no effect	F133L

Variants of: B1
Conditions: with ppard_human PPARD

effect of a mutation on the interaction	Variant
with no effect	F133L

Variants of: B1
Conditions: with prdm1_human PRDM1, O75626

effect of a mutation on the interaction	Variant
with no effect	F133L

Variants of: B1
Conditions: with prex2_human PREX2, Q70Z35

effect of a mutation on the interaction	Variant
with no effect	F133L

Variants of: B1
Conditions: with aapk2_human PRKAA2, P54646

effect of a mutation on the interaction	Variant
with no effect	F133L

Variants of: B1
Conditions: with prss8_human PRSS8, Q16651

effect of a mutation on the interaction	Variant
with no effect	F133L

Variants of: B1
Conditions: with tf65_human RELA

effect of a mutation on the interaction	Variant
with no effect	F133L

Variants of: B1
Conditions: with rictr_human RICTOR

effect of a mutation on the interaction	Variant
with no effect	F133L

Variants of: B1
Conditions: with rnf43_human RNF43, Q68DV7

effect of a mutation on the interaction	Variant
with no effect	F133L

Variants of: B1
Conditions: with ros1_human ROS1, P08922

effect of a mutation on the interaction	Variant
with no effect	F133L

Variants of: B1
Conditions: with rl11_human RPL11, P62913

effect of a mutation on the interaction	Variant
with no effect	F133L

Variants of: B1
Conditions: with rl5_human RPL5, P46777

effect of a mutation on the interaction	Variant
with no effect	F133L

Variants of: B1
Conditions: with rs15_human RPS15, P62841

effect of a mutation on the interaction	Variant
with no effect	F133L

Variants of: B1
Conditions: with rptor_human RPTOR

effect of a mutation on the interaction	Variant
with no effect	F133L

Variants of: B1
Conditions: with rxra_human RXRA

effect of a mutation on the interaction	Variant
with no effect	F133L

Variants of: B1
Conditions: with sdha_human SDHA

effect of a mutation on the interaction	Variant
with no effect	F133L

Variants of: B1
Conditions: with setbp_human SETBP1, Q9Y6X0
Sequence of setbp_human SETBP1, Q9Y6X0 (Q9Y6X0 whole entry): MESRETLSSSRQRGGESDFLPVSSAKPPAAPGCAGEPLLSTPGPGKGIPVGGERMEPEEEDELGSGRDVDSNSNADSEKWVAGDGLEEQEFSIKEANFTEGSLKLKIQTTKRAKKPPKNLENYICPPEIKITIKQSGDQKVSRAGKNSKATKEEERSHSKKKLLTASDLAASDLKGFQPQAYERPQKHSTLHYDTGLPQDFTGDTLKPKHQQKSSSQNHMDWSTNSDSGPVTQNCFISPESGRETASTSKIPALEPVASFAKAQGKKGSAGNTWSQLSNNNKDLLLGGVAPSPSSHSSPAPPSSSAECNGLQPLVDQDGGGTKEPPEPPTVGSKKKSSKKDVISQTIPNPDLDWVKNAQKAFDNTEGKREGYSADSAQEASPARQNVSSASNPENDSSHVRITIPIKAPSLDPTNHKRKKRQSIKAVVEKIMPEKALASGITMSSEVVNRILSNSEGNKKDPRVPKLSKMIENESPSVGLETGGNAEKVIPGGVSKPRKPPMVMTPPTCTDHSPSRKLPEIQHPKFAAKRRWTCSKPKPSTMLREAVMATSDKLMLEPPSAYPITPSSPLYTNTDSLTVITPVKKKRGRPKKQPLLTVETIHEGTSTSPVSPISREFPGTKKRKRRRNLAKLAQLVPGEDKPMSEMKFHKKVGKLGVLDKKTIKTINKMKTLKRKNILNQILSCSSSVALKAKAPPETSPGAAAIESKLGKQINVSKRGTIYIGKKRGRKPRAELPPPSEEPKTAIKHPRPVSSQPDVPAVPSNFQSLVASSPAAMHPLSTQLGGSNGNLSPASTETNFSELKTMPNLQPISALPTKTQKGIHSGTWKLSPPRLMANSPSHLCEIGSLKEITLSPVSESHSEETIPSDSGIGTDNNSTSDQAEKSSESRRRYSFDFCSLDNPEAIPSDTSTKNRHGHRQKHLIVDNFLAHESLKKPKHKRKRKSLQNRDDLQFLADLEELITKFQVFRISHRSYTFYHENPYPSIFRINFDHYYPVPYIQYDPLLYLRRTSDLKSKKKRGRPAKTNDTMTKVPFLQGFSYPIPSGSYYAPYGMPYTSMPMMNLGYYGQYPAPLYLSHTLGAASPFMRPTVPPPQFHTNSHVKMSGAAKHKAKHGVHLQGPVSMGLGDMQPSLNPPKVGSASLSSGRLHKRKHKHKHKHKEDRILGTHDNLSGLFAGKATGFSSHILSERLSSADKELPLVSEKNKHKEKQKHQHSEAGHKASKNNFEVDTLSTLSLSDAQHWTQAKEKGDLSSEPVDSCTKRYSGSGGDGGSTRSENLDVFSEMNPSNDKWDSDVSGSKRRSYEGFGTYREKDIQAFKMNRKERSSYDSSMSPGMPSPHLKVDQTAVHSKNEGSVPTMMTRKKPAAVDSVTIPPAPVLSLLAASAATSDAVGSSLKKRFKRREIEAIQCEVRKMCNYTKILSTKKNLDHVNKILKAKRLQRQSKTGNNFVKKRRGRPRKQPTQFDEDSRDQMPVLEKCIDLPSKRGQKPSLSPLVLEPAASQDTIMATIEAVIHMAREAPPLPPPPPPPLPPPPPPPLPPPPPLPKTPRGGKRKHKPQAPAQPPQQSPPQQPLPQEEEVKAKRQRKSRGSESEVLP

effect of a mutation on the interaction	Variant
with no effect	F133L

Variants of: B1
Conditions: with sf3b1_human SF3B1, O75533

effect of a mutation on the interaction	Variant
with no effect	F133L

Variants of: B1
Conditions: with skp2_human SKP2, Q13309

effect of a mutation on the interaction	Variant
with no effect	F133L

Variants of: B1
Conditions: with smad1_human SMAD1, Q15797

effect of a mutation on the interaction	Variant
with no effect	F133L

Variants of: B1
Conditions: with smca4_human SMARCA4, P51532

effect of a mutation on the interaction	Variant
with no effect	F133L

Variants of: B1
Conditions: with snf5_human SMARCB1, Q12824

effect of a mutation on the interaction	Variant
with no effect	F133L

Variants of: B1
Conditions: with smo_human SMO

effect of a mutation on the interaction	Variant
with no effect	F133L

Variants of: B1
Conditions: with smuf1_human SMURF1, Q9HCE7

effect of a mutation on the interaction	Variant
with no effect	F133L

Variants of: B1
Conditions: with socs1_human SOCS1, O15524

effect of a mutation on the interaction	Variant
with no effect	F133L

Variants of: B1
Conditions: with sox10_human SOX10, P56693

effect of a mutation on the interaction	Variant
with no effect	F133L

Variants of: B1
Conditions: with sox2_human SOX2, P48431

effect of a mutation on the interaction	Variant
with no effect	F133L

Variants of: B1
Conditions: with src_human SRC

effect of a mutation on the interaction	Variant
with no effect	F133L

Variants of: B1
Conditions: with whr1_human WHR1, P49842

effect of a mutation on the interaction	Variant
with no effect	F133L

Variants of: B1
Conditions: with stk38_human STK38, Q15208

effect of a mutation on the interaction	Variant
with no effect	F133L

Variants of: B1
Conditions: with eloc_human ELOC

effect of a mutation on the interaction	Variant
with no effect	F133L

Variants of: B1
Conditions: with tfe2_human TCF3, P15923
Sequence of tfe2_human TCF3, P15923 (P15923 whole entry): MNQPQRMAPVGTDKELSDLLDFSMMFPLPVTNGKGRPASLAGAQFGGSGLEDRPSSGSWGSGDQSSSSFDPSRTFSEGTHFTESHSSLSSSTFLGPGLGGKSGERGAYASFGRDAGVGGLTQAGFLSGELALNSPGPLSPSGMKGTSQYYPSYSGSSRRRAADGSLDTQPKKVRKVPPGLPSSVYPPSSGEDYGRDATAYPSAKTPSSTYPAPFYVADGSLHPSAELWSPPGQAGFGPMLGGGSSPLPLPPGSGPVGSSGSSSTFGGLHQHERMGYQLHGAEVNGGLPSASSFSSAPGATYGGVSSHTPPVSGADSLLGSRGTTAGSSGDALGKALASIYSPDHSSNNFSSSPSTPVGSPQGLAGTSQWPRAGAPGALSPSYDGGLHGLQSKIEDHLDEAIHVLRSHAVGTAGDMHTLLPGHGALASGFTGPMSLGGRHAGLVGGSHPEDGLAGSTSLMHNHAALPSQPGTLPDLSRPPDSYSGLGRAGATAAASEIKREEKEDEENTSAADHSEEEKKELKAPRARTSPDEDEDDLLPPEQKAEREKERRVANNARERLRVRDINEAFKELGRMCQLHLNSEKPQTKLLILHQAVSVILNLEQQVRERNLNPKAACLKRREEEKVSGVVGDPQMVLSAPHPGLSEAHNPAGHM

effect of a mutation on the interaction	Variant
with no effect	F133L

Variants of: B1
Conditions: with tead1_human TEAD1, P28347

effect of a mutation on the interaction	Variant
with no effect	F133L

Variants of: B1
Conditions: with tead3_human TEAD3, Q99594
Sequence of tead3_human TEAD3, Q99594 (Q99594 whole entry): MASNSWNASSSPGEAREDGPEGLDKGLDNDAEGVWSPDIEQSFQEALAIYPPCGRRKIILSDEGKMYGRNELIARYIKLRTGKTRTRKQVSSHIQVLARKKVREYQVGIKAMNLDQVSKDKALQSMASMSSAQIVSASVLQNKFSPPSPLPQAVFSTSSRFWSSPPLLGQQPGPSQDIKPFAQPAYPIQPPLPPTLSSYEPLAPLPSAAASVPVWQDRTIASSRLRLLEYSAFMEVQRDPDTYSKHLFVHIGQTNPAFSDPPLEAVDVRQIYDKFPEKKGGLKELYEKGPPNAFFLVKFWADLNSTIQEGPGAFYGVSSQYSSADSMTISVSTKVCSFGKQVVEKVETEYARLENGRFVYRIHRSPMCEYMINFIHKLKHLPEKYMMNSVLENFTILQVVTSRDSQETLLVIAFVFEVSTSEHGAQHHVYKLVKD

effect of a mutation on the interaction	Variant
with no effect	F133L

Variants of: B1
Conditions: with tead4_human TEAD4, Q15561

effect of a mutation on the interaction	Variant
with no effect	F133L

Variants of: B1
Conditions: with tet2_human TET2, Q6N021

effect of a mutation on the interaction	Variant
with no effect	F133L

Variants of: B1
Conditions: with TMEM106B

effect of a mutation on the interaction	Variant
with no effect	F133L

Variants of: B1
Conditions: with tnr14_human TNFRSF14, Q92956

effect of a mutation on the interaction	Variant
with no effect	F133L

Variants of: B1
Conditions: with tshr_human TSHR

effect of a mutation on the interaction	Variant
with no effect	F133L

Variants of: B1
Conditions: with vegfa_human VEGFA

effect of a mutation on the interaction	Variant
with no effect	F133L

Variants of: B1
Conditions: with vhl_human VHL

effect of a mutation on the interaction	Variant
with no effect	F133L

Variants of: B1
Conditions: with wee1_human WEE1, P30291

effect of a mutation on the interaction	Variant
with no effect	F133L

Variants of: B1
Conditions: with wwtr1_human WWTR1, Q9GZV5

effect of a mutation on the interaction	Variant
with no effect	F133L

Variants of: B1
Conditions: with xpo1_human XPO1, O14980

effect of a mutation on the interaction	Variant
with no effect	F133L

Variants of: B1
Conditions: with asxl2_human ASXL2, Q76L83
Sequence of asxl2_human ASXL2, Q76L83 (Q76L83 whole entry): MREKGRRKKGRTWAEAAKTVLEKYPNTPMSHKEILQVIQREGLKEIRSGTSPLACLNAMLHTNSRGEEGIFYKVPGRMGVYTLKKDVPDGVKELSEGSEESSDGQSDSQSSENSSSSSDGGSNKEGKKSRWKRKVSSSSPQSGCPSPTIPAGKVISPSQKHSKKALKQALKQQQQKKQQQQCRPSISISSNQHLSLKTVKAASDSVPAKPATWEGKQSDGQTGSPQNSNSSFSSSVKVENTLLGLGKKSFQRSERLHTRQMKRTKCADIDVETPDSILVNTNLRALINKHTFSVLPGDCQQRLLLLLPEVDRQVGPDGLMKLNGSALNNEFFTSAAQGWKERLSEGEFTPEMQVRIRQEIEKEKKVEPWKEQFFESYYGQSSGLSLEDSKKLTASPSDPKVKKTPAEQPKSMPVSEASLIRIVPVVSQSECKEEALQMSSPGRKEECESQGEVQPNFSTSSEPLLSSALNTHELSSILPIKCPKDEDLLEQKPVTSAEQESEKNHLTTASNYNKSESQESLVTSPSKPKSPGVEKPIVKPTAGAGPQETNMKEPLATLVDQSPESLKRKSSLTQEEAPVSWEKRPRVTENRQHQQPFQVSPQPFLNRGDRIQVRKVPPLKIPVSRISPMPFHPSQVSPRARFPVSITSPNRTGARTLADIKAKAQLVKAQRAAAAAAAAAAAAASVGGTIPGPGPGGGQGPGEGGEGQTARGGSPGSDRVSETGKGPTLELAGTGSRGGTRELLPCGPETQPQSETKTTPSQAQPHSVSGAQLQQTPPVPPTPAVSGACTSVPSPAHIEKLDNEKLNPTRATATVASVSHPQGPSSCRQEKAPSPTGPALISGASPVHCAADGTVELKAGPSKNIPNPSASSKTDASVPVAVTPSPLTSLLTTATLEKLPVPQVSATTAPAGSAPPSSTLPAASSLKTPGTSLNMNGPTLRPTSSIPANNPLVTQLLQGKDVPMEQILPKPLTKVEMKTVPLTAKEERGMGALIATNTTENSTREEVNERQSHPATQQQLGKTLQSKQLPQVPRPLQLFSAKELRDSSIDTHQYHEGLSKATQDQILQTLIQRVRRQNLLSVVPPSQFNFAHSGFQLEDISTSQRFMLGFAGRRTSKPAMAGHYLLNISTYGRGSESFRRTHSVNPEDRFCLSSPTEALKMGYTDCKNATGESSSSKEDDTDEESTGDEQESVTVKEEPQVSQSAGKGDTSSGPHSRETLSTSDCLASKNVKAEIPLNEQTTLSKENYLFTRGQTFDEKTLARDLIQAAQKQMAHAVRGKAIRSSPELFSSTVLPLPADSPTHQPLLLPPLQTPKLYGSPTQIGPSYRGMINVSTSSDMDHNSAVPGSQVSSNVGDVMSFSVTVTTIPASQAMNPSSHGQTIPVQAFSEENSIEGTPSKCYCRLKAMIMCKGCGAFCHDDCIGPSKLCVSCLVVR

effect of a mutation on the interaction	Variant
causing an interaction	F133L

Variants of: B1
Conditions: with ufo_human AXL

effect of a mutation on the interaction	Variant
causing an interaction	F133L

Variants of: B1
Conditions: with birc2_human BIRC2, Q13490
Sequence of birc2_human BIRC2, Q13490 (Q13490 whole entry): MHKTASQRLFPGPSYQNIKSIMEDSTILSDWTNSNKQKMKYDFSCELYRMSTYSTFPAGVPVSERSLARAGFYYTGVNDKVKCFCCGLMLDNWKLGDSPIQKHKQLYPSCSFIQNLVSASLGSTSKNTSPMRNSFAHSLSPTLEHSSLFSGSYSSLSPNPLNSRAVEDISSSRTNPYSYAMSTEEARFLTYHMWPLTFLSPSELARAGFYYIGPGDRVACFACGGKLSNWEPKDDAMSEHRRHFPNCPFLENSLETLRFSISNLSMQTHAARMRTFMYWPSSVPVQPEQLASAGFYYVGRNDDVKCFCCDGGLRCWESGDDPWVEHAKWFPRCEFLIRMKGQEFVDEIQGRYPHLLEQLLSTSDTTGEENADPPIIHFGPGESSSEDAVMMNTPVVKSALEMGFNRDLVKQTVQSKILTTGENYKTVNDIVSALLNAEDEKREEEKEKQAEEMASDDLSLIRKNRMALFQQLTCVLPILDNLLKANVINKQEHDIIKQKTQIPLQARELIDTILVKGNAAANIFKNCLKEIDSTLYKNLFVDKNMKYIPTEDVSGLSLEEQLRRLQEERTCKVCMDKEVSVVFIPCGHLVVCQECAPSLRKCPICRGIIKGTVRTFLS

effect of a mutation on the interaction	Variant
causing an interaction	F133L

Variants of: B1
Conditions: with cul4b_human CUL4B

effect of a mutation on the interaction	Variant
causing an interaction	F133L

Variants of: B1
Conditions: with jak1_human JAK1, P23458

effect of a mutation on the interaction	Variant
causing an interaction	F133L

Variants of: B1
Conditions: with pk3cb_human PIK3CB

effect of a mutation on the interaction	Variant
causing an interaction	F133L

Variants of: B1
Conditions: with tsc2_human TSC2, P49815

effect of a mutation on the interaction	Variant
causing an interaction	F133L

Variants of: B1
Conditions: with birc2_human BIRC2, Q13490
Remark: another data set of the same source

effect of a mutation on the interaction	Variant
increasing interaction strength	F133L

Variants of: B1
Conditions: with cblb_human CBLB

effect of a mutation on the interaction	Variant
causing an interaction	F133L

Variants of: B1
Conditions: with e2f5_human E2F5, Q15329
Sequence of e2f5_human E2F5, Q15329 (Q15329 whole entry): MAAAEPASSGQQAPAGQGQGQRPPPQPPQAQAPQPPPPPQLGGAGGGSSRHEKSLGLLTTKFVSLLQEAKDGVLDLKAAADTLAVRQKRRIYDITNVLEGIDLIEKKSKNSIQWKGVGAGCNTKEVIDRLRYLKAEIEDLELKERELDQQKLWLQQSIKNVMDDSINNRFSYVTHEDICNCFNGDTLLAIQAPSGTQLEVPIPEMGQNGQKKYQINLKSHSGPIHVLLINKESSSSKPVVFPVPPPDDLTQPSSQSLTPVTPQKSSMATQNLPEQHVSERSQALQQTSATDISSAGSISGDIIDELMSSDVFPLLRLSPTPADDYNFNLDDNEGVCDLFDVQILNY

effect of a mutation on the interaction	Variant
causing an interaction	F133L

Variants of: B1
Conditions: with gata1_human GATA1, P15976

effect of a mutation on the interaction	Variant
increasing interaction strength	F133L

Variants of: B1
Conditions: with igf1r_human IGF1R

effect of a mutation on the interaction	Variant
increasing interaction strength	F133L

Variants of: B1
Conditions: with esr1_human ESR1, P03372

effect of a mutation on the interaction	Variant
decreasing interaction strength	F133L
